From US20110093983A1, “ALGAL GLYCEROL-3 PHOSPHATE ACYLTRANSFERASE” (National Research Council of Canada, priority 2008, published 2011)
Entries after “also recorded” stand apart in the source; their conditions may differ.

How the values were obtained:
[1] = GPAT activity assay of microsomal membrane fractions from yeast gat1 mutant expressing TpGPAT; type: biochemical, Saccharomyces cerevisiae
Procedure: FIG. 2 depicts GPAT activity of TpGPAT1 expressed in yeast gat1 mutant. The microsomal membrane fractions prepared from lysates of the induced yeast cells harboring TpGPAT1 or empty vector pYES2.1 were assayed for GPAT activity with 400 μM [^14C]glycerol 3-phosphate (2.5 nCi/nmol), 45 μM palmitoyl-CoA, 75 mM Tris-HCl, pH 7.5, 1 mM DTT, and 2 mM MgCl2 for 10 min at room temperature. After extraction of the phospholipid products, the radioactivity was measured by scintillation count.
FIG. 3 depicts substrate specificity of TpGPAT1. The microsomal membrane fractions prepared from lysates of the induced yeast cells harboring TpGPAT1 or empty vector pYES2.1 were assayed for GPAT activity with 400 μM [^14C]glycerol 3-phosphate (2.5 nCi/nmol) and different acyl-CoAs as acyl donor. After extraction of the phospholipid products, the radioactivity was measured by scintillation count. […]
Enzyme Assays: GPAT assays were conducted at 30° C. for 10 min. in a 200-pL reaction mixture containing 40 mM Hepes, pH 7.0, 400 pM ^14C-glycerol-3-phosphate (2.5 nCi/nmol), 67.5 pM palmitoyl-CoA and/or stearoyl-CoA or other fatty acyl donors, 1 mM DTT, 2 mM MgCl2, and 2.5 mg/mL BSA unless stated otherwise. […] The formed products were subjected to scintillation counting for radioactivity and thin layer chromatography analysis as described. […]

yeast gat1 mutant = experiment: Fatty acid composition of TAG and phospholipids from yeast gat1 mutant expressing TpGPAT1; type: cell-based, Saccharomyces cerevisiae; conditions: for Proportion of Fatty Acid 16:0 / Proportion of Fatty Acid 16:1 / Proportion of Fatty Acid 18:0 / Proportion of Fatty Acid 18:1 / Proportion of Fatty Acid Sats / Proportion of Fatty Acid Unsats: 3-day induction with 2% galactose, average ± SD, three replicates
Procedure: Yeast cultures were grown at 28° C. in the presence of 2% (w/v) glucose and 1% (w/v) Tergitol NP-40 (Sigma, St. Louis, Mo., US). Expression of the transgene was induced at OD600 nm 0.2 to 0.3 by supplementing galactose to 2% (w/v). At that time, the appropriate FAs were added to a final concentration of 50 or 100 μM in the presence of 1% (w/v) Tergitol NP-40 (Sigma, St. Louis, Mo., US). Yeast cells (20 ml) were harvested after a 3-day incubation, total lipids from yeast homogenates were extracted using the procedure of Schneiter (2005). Separation of neutral lipids and polar lipids was performed by running the thin layer chromatography plates (Si 250-PA, Baker, Phillipsburg, N.J.) in a developing solvent of hexane: ether: acetic acid (70:30:1, v/v) and identified by co-migration with known standards. Spots corresponding to TAG and phospholipid were scraped off the TLC plates and were transmethylated with methanolic HCl and quantified by gas chromatography as described previously. (Zheng and Zou, 2001).
To investigate if the over-expression of TpGPAT has any effect on the fatty acids composition of yeast lipids in vivo, the gall cells harboring TpGPAT or an empty vector as control were induced for 3 days by galactose at 28° C. The total lipids was extracted and then separated into triacylglycerols (TAGS) and phospholipids by TLC for the analysis of fatty acid composition. […] Approximately 12% and 18% increase of 16:0 in phospholipids and triacylglycerols, respectively, turned 16:0 into the most dominant fatty acid in the TpGPAT expressing yeast cells, instead of 16:1 fatty acid in the mutant cells harboring the empty vector. Conversely, the unsaturated fatty acids, 16:1 and 18:1, were reduced to 15% and 21% in these two lipid species. […] Collectively, the results strongly support the finding in the in vitro substrate specificity assay that 16:0 is the most preferred substrate for TpGPAT.

B1: TpGPAT1: membrane-bound glycerol-3-phosphate acyltransferase from T. pseudonana, 674 amino acids, SEQ ID NO:2 (nucleotide SEQ ID NO:1) (protein, listed as Thalassiosira pseudonana)
chain: MGVEKKGTMMSELDYTKAQLAFFYIVVLLSLDMLNPVKIFLHVFPAIKSWHIATFAIACMSYIFIVNLRELLYFATKVFFHSILSIFFNDVTVVGRENIPSHGPVIFTSNHANQFMDGLMIMCTCQRTISYLVADKSWNRPIIGHLAWMMGGVPVKRAQDSACKGTGKISIDLNALAGSDAVINVVGKGTSFTSQIKAGDKIRLPNNAIGIKVESIESDESMSLKVEDGVAEVLSSHPFPEYVTYDILPRIDQKDVYQNVLEKLASGGTIGIFPEGGSHDRTDLLPLKVGVALIAYSELEKDGINVPIVPVGLNYFRAHRFRGKATVEFGSPTYIEPSTLADYKKGGADKRRVCNDLLARIENSMRSVIVSVPDFETLQTIHAARRLYRQDGRNETAEQRQDMGRRFAEGYKRVLLQLGGEPPEEWLSLQSRILAYQKELNELGIRDYQVVGLDHEEVELGSESQGHSKADTVLHRMNVFGHIVHLFVIAVLAALPAMLLNLPVGLASRIYSNRRRKVALAASKVKVKGYDVMLSERVLACIVLVPSLWVVYGLLLSLFTSLDGPSLAVCFTCFPLFSYWSIMATESGMVDIKDLRPYVMRMIPSARRRLAALPATRKALRSDLRAMIKKIGPSLGDIYYEKDLNWQKIQMETKRMSMEELDPAQKDEAAKKEE
Substrate specificity for fatty acyl donors ([1]; different acyl-CoAs as acyl donors (14:0, 16:0, 16:1, 18:0, 18:1, 22:6)): highly specific for 16:0; also recorded: highest activity toward 16:0; also recorded: highly specific for saturated C16 fatty acids
GPAT activity versus control cells transformed with empty pYES2.1 vector ([1]; microsomal membrane fractions, yeast gat1, palmitoyl (16:0)-CoA as acyl donor): about seven
Proportion of Fatty Acid 16:0 (yeast gat1 mutant; Phospholipids): 31.10 ± 3.78 mol %
Proportion of Fatty Acid 16:1 (yeast gat1 mutant; Phospholipids): 34.15 ± 2.74 mol %
Proportion of Fatty Acid 18:0 (yeast gat1 mutant; Phospholipids): 8.92 ± 1.49 mol %
Proportion of Fatty Acid 18:1 (yeast gat1 mutant; Phospholipids): 25.45 ± 2.25 mol %
Proportion of Fatty Acid Sats (yeast gat1 mutant; Phospholipids): 40.02 ± 4.57 mol %
Proportion of Fatty Acid Unsats (yeast gat1 mutant; Phospholipids): 59.83 ± 4.61 mol %
Proportion of Fatty Acid 16:0 (yeast gat1 mutant; TAG): 41.80 ± 2.17 mol %
Proportion of Fatty Acid 16:1 (yeast gat1 mutant; TAG): 29.15 ± 1.61 mol %
Proportion of Fatty Acid 18:0 (yeast gat1 mutant; TAG): 9.17 ± 1.22 mol %
Proportion of Fatty Acid 18:1 (yeast gat1 mutant; TAG): 18.94 ± 0.99 mol %
Proportion of Fatty Acid Sats (yeast gat1 mutant; TAG): 50.97 ± 2.85 mol %
Proportion of Fatty Acid Unsats (yeast gat1 mutant; TAG): 48.49 ± 2.44 mol %
Increase of 18:0 versus empty vector (yeast gat1 mutant; yeast gat1, both TAG and phospholipids): 3-4%
Reduction of unsaturated fatty acids 16:1 and 18:1 in phospholipids versus empty vector (yeast gat1 mutant; yeast gat1, phospholipids): 15%
Increase of 16:0 in triacylglycerols versus empty vector (yeast gat1 mutant; yeast gat1, triacylglycerols): ~18%
Reduction of unsaturated fatty acids 16:1 and 18:1 in triacylglycerols versus empty vector (yeast gat1 mutant; yeast gat1, triacylglycerols): 21%
